{"source": "paper PMC7772510", "about": "(Molecules and Cells, 2020)", "molecular_target": "T1, His6-αX I-domain (UniProt P20702 146-332)", "T1 sequence (looked up)": "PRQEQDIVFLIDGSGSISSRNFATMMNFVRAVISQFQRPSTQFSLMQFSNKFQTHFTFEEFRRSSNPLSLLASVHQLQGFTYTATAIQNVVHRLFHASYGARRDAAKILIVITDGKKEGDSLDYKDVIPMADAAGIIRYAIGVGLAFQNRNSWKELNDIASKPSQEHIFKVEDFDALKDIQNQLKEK", "experiment": "ELISA", "data": [{"binder": "NLDEDIIAEENIVSRSEFPESWLWNV (domain or fragment, human, UniProt P01024 750-775, looked up)", "note": "[GST-αNTN]", "values": [{"measurement": "binding result", "result": "binds"}]}]}
